Results from article PMC9352680, “A comprehensive thermodynamic model for RNA binding by the Saccharomyces cerevisiae Pumilio protein PUF4”.

target: T1, PUF4 RNA-binding domain (Saccharomyces cerevisiae, UniProt P25339 537-888); assay: Mg; RNA-MaP; 20 mM Na-HEPES pH 7.4, 30 mM KOAc, 0.75 mM MgCl2, 0.1% Tween-20, 5% glycerol, 0.1 mg/mL BSA, 2 mM DTT; 25 C; 0.0125-409.6 nM protein; conditions: tags: N-His6-TEV cleaved; C-SNAP kept, Cy3B-labelled; label: tethered on chip by stalled RNA polymerase
T1 sequence: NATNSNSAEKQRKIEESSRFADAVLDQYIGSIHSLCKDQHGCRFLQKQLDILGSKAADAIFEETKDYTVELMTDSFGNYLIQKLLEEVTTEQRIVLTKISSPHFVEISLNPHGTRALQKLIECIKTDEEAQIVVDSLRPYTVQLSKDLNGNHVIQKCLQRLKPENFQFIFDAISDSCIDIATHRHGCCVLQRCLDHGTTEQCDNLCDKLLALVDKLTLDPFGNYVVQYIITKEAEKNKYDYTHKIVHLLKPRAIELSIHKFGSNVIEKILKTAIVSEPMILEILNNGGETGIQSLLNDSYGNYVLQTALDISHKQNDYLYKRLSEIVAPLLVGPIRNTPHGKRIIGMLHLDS

Compared with UCUCUUUUUGUAUUAUUAUCUCUU (ssRNA) [Ie_S1_P5E.1_K5.1_C5.1_H5.1_[+1TT]_A5.1_F5.1_T5.1], UCUCUUUGUAUAUCCCUUAUCUCUU (ssRNA) [Ie_S1_P4E.1_K4.1_C4.1_H4.1_A4.1_[+7CCCT]_F4.1_T4.1] is 3.3-fold higher in Kd: 7.17 nM for the first, 23.4 nM for the second. The first binds more tightly here.

Compared with UCUCUUUGUAUAUUACUCUUCUCUU (ssRNA) [Ie_S1_P4E.1_K4.1_C4.1_H4.1_A4.1_F4.1_[+9CTCT]_T4.1], UCUCUUUGUAUAUUAUUUUCUCUU (ssRNA) [Ie_S1_P4E.1_K4.1_C4.1_H4.1_A4.1_F4.1_[+9TTT]_T4.1] is 2-fold lower in Kd: 0.906 nM for the first, 0.453 nM for the second. The second binds more tightly here.

Going from UCUCUUUCCUCGUAUUAUUAUCUCUU (ssRNA) [Ie_S1_P5E.1_K5.1_C5.1_H5.1_[+1CCTC]_A5.1_F5.1_T5.1] to UCUCUUUGUAUAUUACCUCUCUU (ssRNA) [Ie_S1_P4E.1_K4.1_C4.1_H4.1_A4.1_F4.1_[+9CC]_T4.1], the Kd falls from 1350 nM to 0.729 nM (1900-fold).

Compared with UCUCUUUGUAUAUCUCUCUAUCUCUU (ssRNA) [Ie_S1_P4E.1_K4.1_C4.1_H4.1_A4.1_[+7CTCTC]_F4.1_T4.1], UCUCUUUGUAUAUUCCUCAUCUCUU (ssRNA) [Ie_S1_P4E.1_K4.1_C4.1_H4.1_A4.1_F4.1_[+8CCTC]_T4.1] is 2.3-fold lower in Kd: 15.9 nM for the first, 6.83 nM for the second. The second binds more tightly here.

Going from UCUCUUUGUAUAUUCUCUCAUCUCUU (ssRNA) [Ie_S1_P4E.1_K4.1_C4.1_H4.1_A4.1_F4.1_[+8CTCTC]_T4.1] to UCUCUUUUUCGUAUUAUUAUCUCUU (ssRNA) [Ie_S1_P5E.1_K5.1_C5.1_H5.1_[+1TTC]_A5.1_F5.1_T5.1], the Kd rises from 5.64 nM to 1620 nM (290-fold). The first binds more tightly here.

Going from UCUCUUUUCUGUAUUAUUAUCUCUU (ssRNA) [Ie_S1_P5E.1_K5.1_C5.1_H5.1_[+1TCT]_A5.1_F5.1_T5.1] to UCUCUUUUCGUAUUAUUAUCUCUU (ssRNA) [Ie_S1_P5E.1_K5.1_C5.1_H5.1_[+1TC]_A5.1_F5.1_T5.1], the Kd rises from 4.9 nM to 1240 nM (250-fold).

First: UCUCUUUCUGUAUUAUUAUCUCUU (ssRNA) [Ie_S1_P5E.1_K5.1_C5.1_H5.1_[+1CT]_A5.1_F5.1_T5.1]
Second: UCUCUUUGUAUAUUAUUCUCUCUU (ssRNA) [Ie_S1_P4E.1_K4.1_C4.1_H4.1_A4.1_F4.1_[+9TTC]_T4.1]
The Kd of the first is 8.1-fold higher: 3.96 nM for the first, 0.488 nM for the second. The second binds more tightly here.

Going from UCUCUUUGUAUAUUACCUCUUCUCUU (ssRNA) [Ie_S1_P4E.1_K4.1_C4.1_H4.1_A4.1_F4.1_[+9CCTCT]_T4.1] to UCUCUUUGUAUAUUAUCUCUCUU (ssRNA) [Ie_S1_P4E.1_K4.1_C4.1_H4.1_A4.1_F4.1_[+9TC]_T4.1], the Kd falls from 1.58 nM to 0.435 nM (3.6-fold).

First: UCUCUUUGUAUAUUUCCUAUCUCUU (ssRNA) [Ie_S1_P4E.1_K4.1_C4.1_H4.1_A4.1_[+7TTCC]_F4.1_T4.1]
Second: UCUCUUUGUAUAUUACUCUCUCUU (ssRNA) [Ie_S1_P4E.1_K4.1_C4.1_H4.1_A4.1_F4.1_[+9CTC]_T4.1]
The Kd of the first is 6.4-fold higher: 6.97 nM for the first, 1.09 nM for the second.

First: UCUCUUUGUAUAUUUCAUCUCUU (ssRNA) [Ie_S1_P4E.1_K4.1_C4.1_H4.1_A4.1_F4.1_[+8TC]_T4.1]
Second: UCUCUUUGUAUAUUAUCUCUCUCUU (ssRNA) [Ie_S1_P4E.1_K4.1_C4.1_H4.1_A4.1_F4.1_[+9TCTC]_T4.1]
The Kd of the first is 9.2-fold higher: 5.5 nM for the first, 0.601 nM for the second.

First: UCUCUUUGUAUAUUAUUCCUUCUCUU (ssRNA) [Ie_S1_P4E.1_K4.1_C4.1_H4.1_A4.1_F4.1_[+9TTCCT]_T4.1]
Second: UCUCUUUCCCGUAUUAUUAUCUCUU (ssRNA) [Ie_S1_P5E.1_K5.1_C5.1_H5.1_[+1CCC]_A5.1_F5.1_T5.1]
The Kd of the first is 3900-fold lower: 0.347 nM for the first, 1340 nM for the second. The first binds more tightly here.

First: UCUCUUUUUCCGUAUUAUUAUCUCUU (ssRNA) [Ie_S1_P5E.1_K5.1_C5.1_H5.1_[+1TTCC]_A5.1_F5.1_T5.1]
Second: UCUCUUUGUAUAUUAUUUCUCUU (ssRNA) [Ie_S1_P4E.1_K4.1_C4.1_H4.1_A4.1_F4.1_[+9TT]_T4.1]
The Kd of the first is higher: greater than 2300 nM for the first, 0.545 nM for the second.

First: UCUCUUUGUAUAUUUUCCAUCUCUU (ssRNA) [Ie_S1_P4E.1_K4.1_C4.1_H4.1_A4.1_F4.1_[+8TTCC]_T4.1]
Second: UCUCUUUGUAUAUUACCUCUCUCUU (ssRNA) [Ie_S1_P4E.1_K4.1_C4.1_H4.1_A4.1_F4.1_[+9CCTC]_T4.1]
The Kd of the first is 8.2-fold higher: 5.8 nM for the first, 0.706 nM for the second.

UCUCUUUGUAUAUUCUCAUCUCUU (ssRNA) [Ie_S1_P4E.1_K4.1_C4.1_H4.1_A4.1_F4.1_[+8CTC]_T4.1] and UCUCUUUCUCUGUAUUAUUAUCUCUU (ssRNA) [Ie_S1_P5E.1_K5.1_C5.1_H5.1_[+1CTCT]_A5.1_F5.1_T5.1] are within 1.5-fold of each other in Kd: 10.8 nM for the first, 7.73 nM for the second.

Compared with UCUCUUUGUAUAUUUCCUUAUCUCUU (ssRNA) [Ie_S1_P4E.1_K4.1_C4.1_H4.1_A4.1_[+7TTCCT]_F4.1_T4.1], UCUCUUUGUAUAUUACUCUCUCUCUU (ssRNA) [Ie_S1_P4E.1_K4.1_C4.1_H4.1_A4.1_F4.1_[+9CTCTC]_T4.1] is 5.6-fold lower in Kd: 3.91 nM for the first, 0.699 nM for the second. The second binds more tightly here.
